The target in the assay is T1, 6His-msfGFP-TEV-Mis18FL (S. pombe, UniProt Q9P802 1-194).
T1 sequence (looked up): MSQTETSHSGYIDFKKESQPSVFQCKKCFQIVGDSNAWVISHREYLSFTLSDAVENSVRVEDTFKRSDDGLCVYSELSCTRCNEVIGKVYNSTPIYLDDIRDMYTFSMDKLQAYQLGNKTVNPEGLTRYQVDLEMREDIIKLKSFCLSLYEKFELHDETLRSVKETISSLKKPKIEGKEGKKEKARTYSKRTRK
The assay is described as follows: pull-down.

B1: 6His-MBP-Sad1(2-167) (domain or fragment, S. pombe, UniProt Q09825 2-167, looked up)
chain: FTNTPVGGKRERQNGAHPAWSTLGANSAQIHQNTADLASKMHKLRYTKIRSPPTRVSIESITPKQRFPAPNFEQAYHSNIRYEQEESDNEEFENVVKNGHEASTNVFYESDGDDEEFVNEEYENSIDEESDDEGYSLNEDTTATNASFRYPMNQRSTRKSQFYSSK
With B1, the binding result was “binds”.

(Values after publication doi:10.1101/2023.07.03.547485 (bioRxiv, 2023).)
